The record followed here is article PMC4787810 (Nucleic Acids Research, 2015).

A word on the stoichiometry N: it is the number of molecules, sites or subunits per partner or assembly. In general, Kd refers to a measure of binding affinity in units of concentration.

The series “SEC-MALS” deals with the molecule itself. Briefly: SEC-MALS. (SEC sorts molecules by how far they enter the pores of the column.)
The series “cross-linking” deals with the molecule itself. Briefly: cross-linking.
For series [1], the target named is T1, HpDnaB replicative helicase (Helicobacter pylori, UniProt O25916 1-488).
T1 sequence: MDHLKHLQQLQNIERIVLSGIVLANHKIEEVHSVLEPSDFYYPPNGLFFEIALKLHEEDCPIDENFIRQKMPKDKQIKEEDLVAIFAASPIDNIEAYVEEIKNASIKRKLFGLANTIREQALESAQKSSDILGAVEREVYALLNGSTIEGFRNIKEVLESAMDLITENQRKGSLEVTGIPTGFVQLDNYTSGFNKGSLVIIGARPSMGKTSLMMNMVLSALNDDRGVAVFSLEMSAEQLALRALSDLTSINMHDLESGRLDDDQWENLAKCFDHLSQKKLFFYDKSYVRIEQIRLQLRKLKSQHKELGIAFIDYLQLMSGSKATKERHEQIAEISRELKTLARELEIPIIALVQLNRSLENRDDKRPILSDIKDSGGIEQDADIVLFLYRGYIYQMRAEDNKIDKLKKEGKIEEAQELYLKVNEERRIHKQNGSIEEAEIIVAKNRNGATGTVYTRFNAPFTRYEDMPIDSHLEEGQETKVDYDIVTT
Briefly: fluorescence anisotropy. For orientation: Fluorescence polarisation rises when a labelled molecule tumbles more slowly, as on binding a larger partner.

Series [2] has as its target T2, HpDnaB replicative helicase;HpDnaG helicase-binding domain (HpDnaGHBD) (Helicobacter pylori;Helicobacter pylori …, UniProt O25916;P56064 1-488;415-559, |).
T2 sequence 1: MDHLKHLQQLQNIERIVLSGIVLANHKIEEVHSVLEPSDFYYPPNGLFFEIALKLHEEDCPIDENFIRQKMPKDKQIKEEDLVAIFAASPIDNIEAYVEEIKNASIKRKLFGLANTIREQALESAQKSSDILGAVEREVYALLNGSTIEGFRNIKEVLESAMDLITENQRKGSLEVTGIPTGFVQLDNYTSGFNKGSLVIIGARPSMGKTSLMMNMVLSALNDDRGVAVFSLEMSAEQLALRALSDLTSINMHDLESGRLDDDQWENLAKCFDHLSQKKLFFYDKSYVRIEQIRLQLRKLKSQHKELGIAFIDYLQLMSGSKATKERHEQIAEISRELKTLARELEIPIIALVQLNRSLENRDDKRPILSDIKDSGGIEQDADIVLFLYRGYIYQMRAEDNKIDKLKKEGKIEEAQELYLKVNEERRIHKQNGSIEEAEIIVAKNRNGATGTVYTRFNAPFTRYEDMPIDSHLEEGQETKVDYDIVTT
T2 sequence 2: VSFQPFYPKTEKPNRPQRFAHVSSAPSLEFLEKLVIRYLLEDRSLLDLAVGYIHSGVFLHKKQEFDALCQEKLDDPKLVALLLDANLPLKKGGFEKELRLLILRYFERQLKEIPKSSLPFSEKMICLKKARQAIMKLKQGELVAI
Briefly: fluorescence anisotropy.

For series [3], the target named is T2, HpDnaB replicative helicase;HpDnaG …. Briefly: fluorescence anisotropy. This is another data set of the same source.
Series [4] addresses T1, HpDnaB replicative helicase. Briefly: fluorescence anisotropy. This is another data set of the same source.
The target is the same in series [5]. Briefly: fluorescence anisotropy. This is another data set of the same source.
Series [6] shares this target. Briefly: fluorescence anisotropy. This is another data set of the same source.

Like-named read-outs stand apart in the source and are kept apart here.

B1: HpDnaB^L4A (enzyme, Helicobacter pylori, UniProt O25916 1-488, looked up)
chain: MDHAKHLQQLQNIERIVLSGIVLANHKIEEVHSVLEPSDFYYPPNGLFFEIALKLHEEDCPIDENFIRQKMPKDKQIKEEDLVAIFAASPIDNIEAYVEEIKNASIKRKLFGLANTIREQALESAQKSSDILGAVEREVYALLNGSTIEGFRNIKEVLESAMDLITENQRKGSLEVTGIPTGFVQLDNYTSGFNKGSLVIIGARPSMGKTSLMMNMVLSALNDDRGVAVFSLEMSAEQLALRALSDLTSINMHDLESGRLDDDQWENLAKCFDHLSQKKLFFYDKSYVRIEQIRLQLRKLKSQHKELGIAFIDYLQLMSGSKATKERHEQIAEISRELKTLARELEIPIIALVQLNRSLENRDDKRPILSDIKDSGGIEQDADIVLFLYRGYIYQMRAEDNKIDKLKKEGKIEEAQELYLKVNEERRIHKQNGSIEEAEIIVAKNRNGATGTVYTRFNAPFTRYEDMPIDSHLEEGQETKVDYDIVTT
Take B1: the binding result in “SEC-MALS” is recorded as “binds”.

B2: HpDnaB^Q8A (enzyme, Helicobacter pylori, UniProt O25916 1-488, looked up)
chain: MDHLKHLAQLQNIERIVLSGIVLANHKIEEVHSVLEPSDFYYPPNGLFFEIALKLHEEDCPIDENFIRQKMPKDKQIKEEDLVAIFAASPIDNIEAYVEEIKNASIKRKLFGLANTIREQALESAQKSSDILGAVEREVYALLNGSTIEGFRNIKEVLESAMDLITENQRKGSLEVTGIPTGFVQLDNYTSGFNKGSLVIIGARPSMGKTSLMMNMVLSALNDDRGVAVFSLEMSAEQLALRALSDLTSINMHDLESGRLDDDQWENLAKCFDHLSQKKLFFYDKSYVRIEQIRLQLRKLKSQHKELGIAFIDYLQLMSGSKATKERHEQIAEISRELKTLARELEIPIIALVQLNRSLENRDDKRPILSDIKDSGGIEQDADIVLFLYRGYIYQMRAEDNKIDKLKKEGKIEEAQELYLKVNEERRIHKQNGSIEEAEIIVAKNRNGATGTVYTRFNAPFTRYEDMPIDSHLEEGQETKVDYDIVTT
As to B2, the “stoichiometry N” value in “cross-linking” turned out to be 6.

B3: HpDnaB^E80A (enzyme, Helicobacter pylori, UniProt O25916 1-488, looked up)
chain: MDHLKHLQQLQNIERIVLSGIVLANHKIEEVHSVLEPSDFYYPPNGLFFEIALKLHEEDCPIDENFIRQKMPKDKQIKEADLVAIFAASPIDNIEAYVEEIKNASIKRKLFGLANTIREQALESAQKSSDILGAVEREVYALLNGSTIEGFRNIKEVLESAMDLITENQRKGSLEVTGIPTGFVQLDNYTSGFNKGSLVIIGARPSMGKTSLMMNMVLSALNDDRGVAVFSLEMSAEQLALRALSDLTSINMHDLESGRLDDDQWENLAKCFDHLSQKKLFFYDKSYVRIEQIRLQLRKLKSQHKELGIAFIDYLQLMSGSKATKERHEQIAEISRELKTLARELEIPIIALVQLNRSLENRDDKRPILSDIKDSGGIEQDADIVLFLYRGYIYQMRAEDNKIDKLKKEGKIEEAQELYLKVNEERRIHKQNGSIEEAEIIVAKNRNGATGTVYTRFNAPFTRYEDMPIDSHLEEGQETKVDYDIVTT
In the case of B3, the binding result in “SEC-MALS” was “binds”.

B4: HpDnaB^Δ9 (N-terminal deletion mutant starting at residue 10) (domain or fragment, Helicobacter pylori, UniProt O25916 10-488, looked up)
chain: LQNIERIVLSGIVLANHKIEEVHSVLEPSDFYYPPNGLFFEIALKLHEEDCPIDENFIRQKMPKDKQIKEEDLVAIFAASPIDNIEAYVEEIKNASIKRKLFGLANTIREQALESAQKSSDILGAVEREVYALLNGSTIEGFRNIKEVLESAMDLITENQRKGSLEVTGIPTGFVQLDNYTSGFNKGSLVIIGARPSMGKTSLMMNMVLSALNDDRGVAVFSLEMSAEQLALRALSDLTSINMHDLESGRLDDDQWENLAKCFDHLSQKKLFFYDKSYVRIEQIRLQLRKLKSQHKELGIAFIDYLQLMSGSKATKERHEQIAEISRELKTLARELEIPIIALVQLNRSLENRDDKRPILSDIKDSGGIEQDADIVLFLYRGYIYQMRAEDNKIDKLKKEGKIEEAQELYLKVNEERRIHKQNGSIEEAEIIVAKNRNGATGTVYTRFNAPFTRYEDMPIDSHLEEGQETKVDYDIVTT
B4: the “stoichiometry N” value is around 6 in “SEC-MALS” and 6 in “cross-linking”.

With TTTTTTTTTTTTTTTTTTTT (ssDNA) [20dT], the Kd was found to be 3.1 ± 0.1 nM in series [1], 1 ± 0.1 nM in series [2], 8.3 ± 0.6 nM in series [3] and 15 ± 1 nM in series [4].

For TTTTTTTTTTTTTTTTTTTTTTTTTTTTTTTTTTTTTTTTTTTTTTTTTT (ssDNA) [50dT], the results for the Kd in series [5] and in series [6] were 70 ± 6 nM and 1.8 ± 0.2 nM, respectively.
